The experiment addresses SARS-CoV-2 spike protein, WT (SARS-CoV-2, UniProt P0DTC2 14-1208). The experiment in a line: virus-free Luminex binding assay, spike on beads.

The values that follow come from patent US20230395187A1 (published 2023).

B1: Imdevimab (RGN87) (antibody, V domains shown)
VH: QVQLVESGGGVVQPGRSLRLSCAASGFTFSNYAMYWVRQAPGKGLEWVAVISYDGSNKYYADSVKGRFTISRDNSKNTLYLQMNSLRTEDTAVYYCASGSDYGDYLLVYWGQGTLVTVSS
VL: QSALTQPASVSGSPGQSITISCTGTSSDVGGYNYVSWYQQHPGKAPKLMIYDVSKRPSGVSNRFSGSKSGNTASLTISGLQSEDEADYYCNSLTSISTWVFGGGTKLTVLG
Consider B1, for which a half-maximal response (EC50) required 0.082 µg/mL.

For orientation: EC50 means the concentration needed to bring the measured effect to its halfway point. A high value points to a need for much substance.
